Laboratory results reported in patent US20230201308A1, “TREATMENT OF CORONAVIRUS INFECTION WITH […]” (Eiger Biopharmaceuticals, Inc., priority 2020, published 2023).
Where two headings read alike, the source gives them in different places.

Experiments:
[1] = test system: SARS-CoV-2; experiment: Second trial: outpatients with mild to moderate COVID-19, SARS-CoV-2 RNA viral load and clearance; format: in vivo, human
Description: Using the methods and criteria described above in Examples 1-3, a second trial was performed to assess interferon lambda for immediate antiviral therapy at diagnosis in COVID-19 infections. The second trial included a randomized trial of pegylated interferon lambda in outpatients with mild to moderate COVID-19 infection.
Thirty participants were randomly assigned to receive 180 mcg pegylated interferon lambda-1a, and 30 participants were assigned to receive a saline placebo. Patients were followed for 14 days. Nasopharyngeal samples were collected. The baseline SARS-CoV-2 viral load in the interferon lambda group was 6.2 log10 copies/mL and was 4.9 log10 copies/mL in the placebo group. In the interferon lambda group (19 subjects) and placebo (16 subjects) groups, there were a total of 35 subjects with viral loads great or equal to 6 log10 copies/mL.

[2] = test system: SARS-CoV-2; experiment: Third trial (TOGETHER): virological assessment, quantitative real-time PCR of mid-turbinate swabs; format: in vivo, human; details: for proportion of participants with a negative swab for SARS-CoV-2 RNA: Canadian cohort
[3] = test system: SARS-CoV-2; experiment: First trial: single 180 mcg dose vs placebo in 120 participants with COVID-19; format: in vivo, human
Description: Using the methods and criteria described above in Examples 1-3, a first trial was performed. In the first trial, 120 participants were enrolled; 70 (58.3%) were male, 75 (62.5%) identified as Latinx, and the median duration of symptoms prior to randomization was 5 days. Sixty participants were randomly assigned to receive 180 mcg pegylated interferon lambda-1a, and 60 participants were assigned to receive a placebo. […] Subjects viral samples were taken by oral pharyngeal swabs. The median time to cessation of viral shedding was 7 days in both arms (hazard ratio [HR] for duration of shedding 0.81 comparing Lambda vs. placebo; 95% confidence interval [CI] 0.56 to 1.19; p=0.29). No difference in time to resolution of symptoms was observed comparing interferon lambda vs. placebo (HR 0.94; 95% CI 0.64 to 1.39; p=0.76). Two serious adverse events were reported in each arm. Liver transaminase elevations were more common in the interferon lambda vs. placebo arm (15/60 vs 5/60; p=0.027).

[4] = for Aes: outside of the directed symptom categories
Description: Detailed directed and open-ended symptoms were assessed serially. Because of overlap between symptoms of COVID-19 and potential peginterferon-lambda Aes, symptoms were recorded and Aes were considered any symptom outside of the directed symptom assessment. Laboratory AE severity was graded using the Common Terminology Criteria for Adverse Events (CTCAE) Version 5.0.

[5] = test system: SARS-CoV-2 (2019-nCoV/USA-WA1/2020); format: cell-based; details: HAE pretreated basolaterally 24 hr
[6] = baseline RNA above 10^6 copies/mL
[7] = baseline viral load below 10^6 copies/mL
[8] = Day 7, high baseline viral load
[9] = Baseline Viral Load <10E6 copies/mL
[10] = Baseline Viral Load ≥10E6 copies/mL
[11] = n=30, listed as Peginterferon Lambda
[12] = n=30, listed as peginterferon-lambda

B1: pegylated interferon lambda-1a (protein)
chain: MKPTTTGKGCHIGRFKSLSPQELASFKKARDALEESLKLKNWSCSSPVFPGNWDLRLLQVRERPVALEAELALTLKVLEAAAGPALEDVLDQPLHTLHHILSQLQACIQPQPTAGPRPRGRLHHWLHRLQEAPKKESAGCLEASVTFNLFRLLTRDLKYVADGNLSLRTSTHPEST
modifications: PEG
notes: 180 mcg subcutaneous injection
OR of response (clearance) at Day 7 vs Placebo ([1]; Adjusted for Asymptomatic at baseline, all patients): 2.91 | OR of response (clearance) at Day 7 vs Placebo ([1]; Adjusted for Asymptomatic at baseline, ≥10E6 copies/mL): 0.00 | OR of response (clearance) at Day 7 vs Placebo ([1]; Adjusted for BMI, all patients): 2.37 | OR of response (clearance) at Day 7 vs Placebo ([1]; Adjusted for BMI, ≥10E6 copies/mL): 6.73 | OR of response (clearance) at Day 7 vs Placebo ([1]; Adjusted for IFNL4 genotype, all patients): 2.24 | OR of response (clearance) at Day 7 vs Placebo ([1]; Adjusted for IFNL4 genotype, ≥10E6 copies/mL): 7.66 | OR of response (clearance) at Day 7 vs Placebo ([1]; Adjusted for age, all patients): 2.48 | OR of response (clearance) at Day 7 vs Placebo ([1]; Adjusted for age, ≥10E6 copies/mL): 9.42 | OR of response (clearance) at Day 7 vs Placebo ([1]; Adjusted for comorbidity, all patients): 2.35 | OR of response (clearance) at Day 7 vs Placebo ([1]; Adjusted for comorbidity, ≥10E6 copies/mL): 10.46 | OR of response (clearance) at Day 7 vs Placebo ([1]; Adjusted for sex, all patients): 2.36 | OR of response (clearance) at Day 7 vs Placebo ([1]; Adjusted for sex, ≥10E6 copies/mL): 6.44 | OR of response (clearance) at Day 7 vs Placebo ([1]; Adjusted for viral load at baseline, all patients): 4.12 | OR of response (clearance) at Day 7 vs Placebo ([1]; Adjusted for viral load at baseline, ≥10E6 copies/mL): 8.16 | OR of response (clearance) at Day 7 vs Placebo ([1]; Adjusted for viral load with interaction, baseline 10E3 copies/mL): 1.45 | OR of response (clearance) at Day 7 vs Placebo ([1]; Adjusted for viral load with interaction, baseline 10E4 copies/mL): 1.88 | OR of response (clearance) at Day 7 vs Placebo ([1]; Adjusted for viral load with interaction, baseline 10E5 copies/mL): 2.43 | OR of response (clearance) at Day 7 vs Placebo ([1]; Adjusted for viral load with interaction, baseline 10E6 copies/mL): 3.14 | OR of response (clearance) at Day 7 vs Placebo ([1]; Adjusted for viral load with interaction, baseline 10E7 copies/mL): 4.05 | OR of response (clearance) at Day 7 vs Placebo ([1]; Adjusted for viral load with interaction, baseline 10E8 copies/mL): 5.23 | OR of response (clearance) at Day 7 vs Placebo ([1]; Adjusted for viral load with interaction, baseline 10E9 copies/mL): 6.76 | OR of response (clearance) at Day 7 vs Placebo ([1]; Crude, all patients): 2.32 | OR of response (clearance) at Day 7 vs Placebo ([1]; Crude, ≥10E6 copies/mL at baseline): 6.25 | viral load decline greater than in placebo group ([1]; Day 3, all patients): 0.82 log copies/mL | viral load decline greater than in placebo group ([1]; Day 5, all patients): 1.67 log copies/mL | viral load decline greater than in placebo group ([1]; Day 7, all patients): 2.42 log copies/mL | viral load decline greater than in placebo group ([1]; Day 14, all patients): 1.77 log copies/mL | median time to viral clearance [1, 6]: 7 (95% CI 6.2-7.8) days | undetectable at Day 7, participants [1, 6]: 15 of 19 | undetectable at Day 7, proportion [1, 6]: 79% | OR undetectable at Day 7 vs placebo [1, 7]: 0.35 | undetectable at Day 7, participants [1, 7]: 9 of 11 | undetectable at Day 7, proportion [1, 7]: 82% | negative for SARS-CoV-2 RNA, participants ([1]; by Day 7, all patients): 24/30 | negative for SARS-CoV-2 RNA, proportion ([1]; by Day 7, all patients): 80% | viral level decrease in absolute terms ([1]; by Day 7, all patients): 5.5 log copies/mL | viral load decline ([1]; by Day 7, baseline viral load at or above 10E6 copies/mL): 7.17 log copies/mL | detectable virus at Day 7, participants ([1]; high baseline viral load): 4 of 19 | detectable virus at Day 7, proportion ([1]; high baseline viral load): 21% | OR of response at Day 7 for viral load at baseline within the IFN Lambda group ([1]; interaction model, all patients): 0.82 | shedding of infectious virus at day 7 ([1]; interferon lambda group): all subjects were below the level of shedding infectious virus at day 7 | proportion of participants with a negative swab for SARS-CoV-2 RNA ([2]; Day 0 post injection): 0 | proportion of participants with a negative swab for SARS-CoV-2 RNA ([2]; Day 1 post injection): 0 | proportion of participants with a negative swab for SARS-CoV-2 RNA ([2]; Day 2 post injection): 7 | proportion of participants with a negative swab for SARS-CoV-2 RNA ([2]; Day 3 post injection): 27 | proportion of participants with a negative swab for SARS-CoV-2 RNA ([2]; Day 4 post injection): 40 | proportion of participants with a negative swab for SARS-CoV-2 RNA ([2]; Day 5 post injection): 60 | proportion of participants with a negative swab for SARS-CoV-2 RNA ([2]; Day 6 post injection): 64 | odds ratio, below the limit of quantitation vs placebo [2, 8]: 2.13 | patients below the limit of quantitation [2, 8]: 50.5% | treatment effect on viral load (Beta) ([2]; Day 7, high baseline viral load (≥192,841,278 copies/mL)): −1.01 | median viral load decline from baseline ([2]; Day 7, hospitalized patients): 7.19 log copies/mL | proportion of participants with a negative swab for SARS-CoV-2 RNA ([2]; Day 7 post injection): 86 | proportion of participants with a negative swab for SARS-CoV-2 RNA ([2]; Day 8 post injection): 92 | proportion of participants with a negative swab for SARS-CoV-2 RNA ([2]; Day 9 post injection): 85 | proportion of participants with a negative swab for SARS-CoV-2 RNA ([2]; Day 10 post injection): 92 | proportion of participants with a negative swab for SARS-CoV-2 RNA ([2]; Day 11 post injection): 100 | proportion of participants with a negative swab for SARS-CoV-2 RNA ([2]; Day 12 post injection): 100 | proportion of participants with a negative swab for SARS-CoV-2 RNA ([2]; Day 13 post injection): 100 | proportion of participants with a negative swab for SARS-CoV-2 RNA ([2]; Day 14 post injection): 100 | median log decline in viral load ([2]; by Day 7, high baseline viral load): 8.29 | viral loads by Day 7 ([2]; final analysis): significantly lowered | treatment effect on viral load (Beta) ([2]; low baseline viral load group): 0.22 | shedding cessation relative to placebo ([3]; seronegative at baseline): delayed shedding cessation relative to placebo | shedding cessation relative to placebo ([3]; seropositive at baseline): appeared to hasten shedding cessation | effect on duration of viral shedding and symptoms compared to placebo ([3]; single 180 mcg s.c.): neither shortened the duration of SARS-CoV-2 viral shedding nor improved symptoms | hazard ratio for duration of shedding vs. placebo ([3]; single 180 mcg s.c.): 0.81 | hazard ratio, time to resolution of symptoms vs. placebo ([3]; single 180 mcg s.c.): 0.94 | liver transaminase elevations (participants of arm) ([3]; single 180 mcg s.c.): 15/60 | serious adverse events reported in the arm ([3]; single 180 mcg s.c.): Two | tolerability ([3]; single 180 mcg s.c.): well tolerated | median time to cessation of viral shedding ([3]; single 180 mcg s.c., n=60): 7 days | deaths ([4]; 14 days): No deaths | OR symptom progression vs Placebo, All Symptoms ([4]; All samples): 3.15 | OR symptom progression vs Placebo, Fever Syndrome ([4]; All samples): 1.69 | OR symptom progression vs Placebo, Gastrointestinal ([4]; All samples): 0.48 | OR symptom progression vs Placebo, Mood ([4]; All samples): 0.90 | OR symptom progression vs Placebo, Musculoskeletal ([4]; All samples): 1.80 | OR symptom progression vs Placebo, Neurologic ([4]; All samples): 5.07 | OR symptom progression vs Placebo, Respiratory ([4]; All samples): 4.67 | OR symptom progression vs Placebo, Skin ([4]; All samples): 0.76 | OR symptom progression vs Placebo, All Symptoms [4, 9]: 1.63 | OR symptom progression vs Placebo, Fever Syndrome [4, 9]: 4.83 | OR symptom progression vs Placebo, Gastrointestinal [4, 9]: 0.40 | OR symptom progression vs Placebo, Mood [4, 9]: 0.32 | OR symptom progression vs Placebo, Musculoskeletal [4, 9]: 2.55 | OR symptom progression vs Placebo, Neurologic [4, 9]: 1.60 | OR symptom progression vs Placebo, Respiratory [4, 9]: 3.67 | OR symptom progression vs Placebo, Skin [4, 9]: 0.51 | OR symptom progression vs Placebo, All Symptoms [4, 10]: 2.39 | OR symptom progression vs Placebo, Fever Syndrome [4, 10]: 1.24 | OR symptom progression vs Placebo, Gastrointestinal [4, 10]: 0.58 | OR symptom progression vs Placebo, Mood [4, 10]: 1.29 | OR symptom progression vs Placebo, Musculoskeletal [4, 10]: 1.19 | OR symptom progression vs Placebo, Neurologic [4, 10]: 2.61 | OR symptom progression vs Placebo, Respiratory [4, 10]: 5.88 | OR symptom progression vs Placebo, Skin [4, 10]: 1.90 | Emergency Room visits ([4]; n=30): 1 | Hospital admissions ([4]; n=30): 1 | Lab Abnormalities (grade 3 or 4), Alanine aminotransferase (ALT) ([4]; n=30): 1 | Lab Abnormalities (grade 3 or 4), Aspartate aminotransferase (AST) ([4]; n=30): 1 | Lab Abnormalities (grade 3 or 4), Creatinine ([4]; n=30): 0 | Lab Abnormalities (grade 3 or 4), Hemoglobin ([4]; n=30): 0 | Lab Abnormalities (grade 3 or 4), Lymphocytes ([4]; n=30): 0 | Lab Abnormalities (grade 3 or 4), Neutrophils ([4]; n=30): 0 | Lab Abnormalities (grade 3 or 4), Platelets ([4]; n=30): 0 | Lab Abnormalities (grade 3 or 4), Total bilirubin ([4]; n=30): 0 | Lab Abnormalities (grade 3 or 4), White Blood Cells ([4]; n=30): 0 | Treatment-Related Aes ([4]; n=30): 0 | Treatment-Related SAEs ([4]; n=30): 0 | Severe Symptoms, number of patients ([4]; n=30, 14 days): 7 | Severe Symptoms, reports ([4]; n=30, 14 days): 20 | SAEs [4, 11]: 1 | SAEs [4, 12]: One | Aes [4, 11]: 2 | Aes [4, 12]: two | aminotransferase elevations compared to placebo ([4]; single 180 mcg s.c.): higher rate of transient aminotransferase elevations | tolerability ([4]; single 180 mcg s.c.): well-tolerated with few adverse events | SARS-CoV-2 infectious virus production (titer of apical washes, plaque assay) ([5]; […]): reducing viral load in infected cells | SARS-CoV-2 infectious virus production (titer of apical washes, plaque assay) ([5]; […];, listed as peg-IFN-λ1): potent dose dependent reduction
